The supplement of paper PMC7125110
± gives the standard error. For some assays here: This sample holds only a part of the variants without activity.

B1: glmS ribozyme (parent)
chain: AUAAAAGCGCCAGAACUACAGAAAUGUAGUUGACGAGGAGGAGGUUUAUCGAAUUUUCGGCGGAUGCCUCCAAA

Tests used:
Conditions in all cases: with glucosamine-6-phosphate
[1] = variants of: B1; assay: kcat; higher = faster cleavage; RNA array
In short: (§1)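 The measurements used barcoded ribozyme variants on sequenced MiSeq chips, transcribed in situ by E. coli RNA polymerase and tracked at 37 °C with a hybridised Cy3 probe. Glucosamine-6-phosphate, 40 μM to 10 mM in HEPES/KCl/Mg(OAc)2 buffer, was flowed in while tiles were imaged over ~14 h. Baseline-normalised signals, also normalised to non-cleaving reference variants, gave per-tile medians that were fit to one- or two-exponential decays for kobs. kcat and KM resulted from weighted Michaelis–Menten fits across concentrations.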

[2] = variants of: B1; assay: self-cleavage kobs at 2500 uM GlcN6P; higher = faster cleavage; RNA array
In short: as §1

[3] = variants of: B1; assay: self-cleavage kobs at 40 uM GlcN6P; higher = faster cleavage; RNA array
In short: as §1

[4] = variants of: B1; assay: KM; higher = weaker cofactor use; RNA array
In short: as §1

[5] = variants of: B1; assay: self-cleavage kobs at 10000 uM GlcN6P; higher = faster cleavage; RNA array
In short: as §1

[6] = variants of: B1; assay: self-cleavage kobs at 640 uM GlcN6P; higher = faster cleavage; RNA array
In short: as §1

[7] = variants of: B1; assay: self-cleavage kobs at 160 uM GlcN6P; higher = faster cleavage; RNA array
In short: as §1

Variant	kcat [1] [s⁻¹]	self-cleavage kobs at 2500 uM GlcN6P [2] [s⁻¹]	self-cleavage kobs at 40 uM GlcN6P [3] [s⁻¹]	KM [4] [µM]	self-cleavage kobs at 10000 uM GlcN6P [5] [s⁻¹]	self-cleavage kobs at 640 uM GlcN6P [6] [s⁻¹]	self-cleavage kobs at 160 uM GlcN6P [7] [s⁻¹]
A6G U46G C68U	3.96e-05 ± 1.9e-05	4.82e-05 ± 2.3e-05					
C34U G60C	< 1e-05		< 1e-05				
G41C U46G	0.000114 ± 3.4e-06	6.37e-05 ± 1.1e-05		2060 ± 210	9.41e-05 ± 1e-05		
G51U G60C C70G	1.22e-05 ± 2.5e-06		< 1e-05				
U47A A52U	0.000365 ± 3.9e-05	0.000158 ± 3e-05		2690 ± 570	0.000299 ± 4.3e-05	7.72e-05 ± 1.5e-05	
U47C C58A	0.00036 ± 6e-05	0.00016 ± 2.7e-05		4240 ± 1300	0.000244 ± 3.3e-05	3.95e-05 ± 1.1e-05	
A52U C67U	0.000336 ± 2.3e-05	0.000163 ± 2e-05		2300 ± 310	0.00028 ± 2.8e-05	7.82e-05 ± 1e-05	
C11U C58A	5.6e-05 ± 2e-06	4.48e-05 ± 1.1e-05		753 ± 170	5.15e-05 ± 8.2e-06		
G32A A64G	0.00438 ± 0.00041	0.00144 ± 0.00035	2.33e-05 ± 9.5e-06	6200 ± 820	0.00267 ± 0.00027	0.000433 ± 5.6e-05	0.000104 ± 1.8e-05
G7A	4.39e-05 ± 1.2e-06	1.71e-05 ± 2.6e-06		4040 ± 350	3.13e-05 ± 1.1e-06		
U31G U49C U54A G63C C68G U69G	2.53e-05 ± 5.9e-06		< 1e-05				
C11U G29A	0.000628 ± 0.00013	0.000194 ± 3e-05		4190 ± 1400	0.000474 ± 5.6e-05	9.17e-05 ± 1.1e-05	
G38U C50G	4.08e-05 ± 1.4e-05	6.94e-05 ± 1.4e-05					
A52G U54A	0.00109 ± 0.00027	0.00057 ± 0.00011		1560 ± 590	0.00101 ± 0.0002	0.000442 ± 7.6e-05	9.56e-05 ± 1.7e-05
U57C U65A	1.91e-05 ± 3.6e-07		< 1e-05	1410 ± 140			
C10U U47A	2.05e-05 ± 1.2e-06		< 1e-05	300 ± 150			< 1e-05
A14G U65C	0.00147 ± 0.00035	0.00142 ± 0.00028	7.25e-05 ± 1.9e-05	1120 ± 420	0.00124 ± 0.00025	0.000445 ± 9.2e-05	0.000176 ± 3.5e-05
G37C C50A C58A U69A	5.12e-05 ± 2.4e-05					8.62e-05 ± 3.4e-05	
